From patent publication US20120195879A1
No end group written: not given here.

B1: aDNP 3B1 antibody (hybridoma) (antibody, human IgG2, kappa, V domains shown)
VH: QVQLQESGPGLVKPSETLSLTCTVSGGSISSYYWSWIRQPPGKGLEWIGYIYYSGNTNSNPSLKSRVTISVDTSKNQFSLKLSSVTAADTAVYYCARTYYDSSGYYYRAFDIWGQGTMVTVSS
VL: DIQMTQSPSSLSASEGDRVTITCRASQGIRNDLGWYQQKPGKAPKRLIYAASSLQSGVPLRFSGSGSGTEFTLTISSLQPEDFATYYCLQYNSYPWTFGQGTKVEIKR
B2: aDNP 3B1 antibody (recombinant, IgG2) (antibody, V domains shown)
VH: B1 VH
VL: B1 VL
B3: aDNP 3A1 antibody (hybridoma) (antibody, human IgG2, kappa, V domains shown)
VH: QVQLQESGPGLVKPSETLSLTCTVSGGSISHYYWSWIRQPPGKGLGWIGYIYYSGSTNYNPSLKSRVTISVDTSKNQFSLKLTSVTAADTAVYYCARARGDGYNYPDAFDIWGQGTMVTVSS
VL: DIQMTQSPSSVSASVGDRVTITCRASQGISNWLAWYQRKPGKAPKLLIYAASSLQSGVPSRFSGSGSGTDFTLTISSLQPEDFAAYYCQQASSFPWTFGQGTRVEIKR

Legend:
DNP(3)-BSA (bovine) = test: SPR (BIAcore 2000), antibody captured on anti-human IgG Fc surface, DNP-BSA injected; apparent constants
DNP(31)-BSA (bovine) = DNP(31)-BSA (bovine) (UniProt P02769); test: as above
human Kv1.1 (human) = human Kv1.1 (human) (UniProt Q09470); test: cell-based or functional assay
human Kv1.3 (human) = human Kv1.3 (human) (UniProt P22001); test: cell-based or functional assay
Chain of human Kv1.3 (human) (P22001 whole entry): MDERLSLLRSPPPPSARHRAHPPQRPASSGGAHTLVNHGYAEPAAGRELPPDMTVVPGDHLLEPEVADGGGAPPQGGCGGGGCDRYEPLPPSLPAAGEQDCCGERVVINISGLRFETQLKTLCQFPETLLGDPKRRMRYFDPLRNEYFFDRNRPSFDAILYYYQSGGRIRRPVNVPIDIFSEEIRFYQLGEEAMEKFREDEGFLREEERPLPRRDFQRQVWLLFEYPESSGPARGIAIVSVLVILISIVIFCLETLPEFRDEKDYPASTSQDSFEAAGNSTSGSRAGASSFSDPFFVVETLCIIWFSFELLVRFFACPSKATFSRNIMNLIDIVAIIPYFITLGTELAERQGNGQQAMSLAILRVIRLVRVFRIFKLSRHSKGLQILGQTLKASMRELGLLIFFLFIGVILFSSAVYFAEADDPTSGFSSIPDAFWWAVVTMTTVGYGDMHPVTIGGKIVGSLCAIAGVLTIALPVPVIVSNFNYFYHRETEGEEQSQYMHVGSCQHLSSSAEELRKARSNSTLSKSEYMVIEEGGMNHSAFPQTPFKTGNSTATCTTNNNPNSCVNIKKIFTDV

Chain of DNP(3)-BSA (bovine) (P02769 25-607 limits assumed, form in doubt): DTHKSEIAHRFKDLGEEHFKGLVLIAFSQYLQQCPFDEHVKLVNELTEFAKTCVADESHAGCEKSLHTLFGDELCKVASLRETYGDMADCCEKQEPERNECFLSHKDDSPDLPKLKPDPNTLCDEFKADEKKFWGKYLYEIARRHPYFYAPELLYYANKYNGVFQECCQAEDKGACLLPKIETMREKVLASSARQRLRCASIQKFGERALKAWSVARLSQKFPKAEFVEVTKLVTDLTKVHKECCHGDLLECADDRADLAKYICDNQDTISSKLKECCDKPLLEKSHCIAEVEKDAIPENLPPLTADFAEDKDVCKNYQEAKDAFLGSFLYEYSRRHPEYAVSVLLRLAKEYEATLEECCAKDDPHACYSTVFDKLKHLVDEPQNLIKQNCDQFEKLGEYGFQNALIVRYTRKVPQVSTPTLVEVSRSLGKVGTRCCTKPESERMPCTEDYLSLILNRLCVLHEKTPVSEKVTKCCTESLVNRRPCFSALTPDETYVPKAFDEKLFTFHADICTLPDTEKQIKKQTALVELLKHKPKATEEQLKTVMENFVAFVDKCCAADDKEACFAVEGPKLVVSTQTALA
Chain of DNP(31)-BSA (bovine) (P02769 25-607 limits assumed, form in doubt): as above
Chain of human Kv1.1 (human) (Q09470 whole entry): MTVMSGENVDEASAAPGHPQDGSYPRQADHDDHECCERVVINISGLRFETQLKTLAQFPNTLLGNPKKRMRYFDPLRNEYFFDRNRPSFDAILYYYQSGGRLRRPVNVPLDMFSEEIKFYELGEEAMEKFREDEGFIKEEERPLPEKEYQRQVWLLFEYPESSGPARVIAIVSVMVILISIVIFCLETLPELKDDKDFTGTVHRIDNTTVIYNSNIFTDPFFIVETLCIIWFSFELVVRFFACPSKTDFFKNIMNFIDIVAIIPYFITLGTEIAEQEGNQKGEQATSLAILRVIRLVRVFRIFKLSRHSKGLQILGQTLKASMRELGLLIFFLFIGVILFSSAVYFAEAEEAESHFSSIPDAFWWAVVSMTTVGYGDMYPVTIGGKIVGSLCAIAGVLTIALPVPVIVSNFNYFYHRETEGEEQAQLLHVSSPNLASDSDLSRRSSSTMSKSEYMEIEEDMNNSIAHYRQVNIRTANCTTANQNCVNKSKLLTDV

Binder	Kd (DNP(3)-BSA (bovine))	koff (DNP(3)-BSA (bovine))	kon (DNP(3)-BSA (bovine))	Kd (DNP(31)-BSA (bovine))	koff (DNP(31)-BSA (bovine))	kon (DNP(31)-BSA (bovine))	Kv1.1 (PX) IC50 (human Kv1.1 (human))	Kv1.1/Kv1.3 Selectivity Ratio by PX (human Kv1.3 (human))	Kv1.3 (PX) IC50 (human Kv1.3 (human))	Potency Relative to ShK (WB, IL2) (human Kv1.3 (human))
B1	3 nM	0.00036 s⁻¹	140000 M⁻¹ s⁻¹	0.2 nM	5.8e-05 s⁻¹	370000 M⁻¹ s⁻¹				
B2				0.7 nM	0.00031 s⁻¹	420000 M⁻¹ s⁻¹				
B3	526 nM	0.00065 s⁻¹	1200 M⁻¹ s⁻¹	9 nM	0.00031 s⁻¹	34000 M⁻¹ s⁻¹				
Fc-GGGGSGGGGSRSCIDTIPKSRCTAFQCKHSMKYRLSFCRKTCGTC (Fc fusion, ends and bridges not checked; also: homodimer via Fc) [Bivalent Fc-L10-ShK[1-35] homodimer]							0.067 nM	4.47	0.015 nM	5.76
Fc-GGGGSGGGGSSCIDTIPKSRCTAFQCKHSMKYRLSFCRKTCGTC (Fc fusion, ends and bridges not checked; also: homodimer via Fc) [Bivalent Fc-L10-ShK[2-35] homodimer]							0.411 nM	3.54	0.116 nM	8.73
